Measurements published in FireProtDB (doi:10.1021/bi0118052).
Where “and” joins values, the source holds several entries; their conditions need not be identical. Equal values may be shown once.

Conditions: Homo sapiens; pH 7.2; 25 °C; GdnHCl; CD; MOPS 10 mM; KCl 50 mM; reversible: yes; whole UniProt chain shown

B1: Protein S100-B wild type, P04271 (protein)
chain: MSELEKAMVALIDVFHQYSGREGDKHKLKKSELKELINNELSHFLEEIKEQEVVDKVMETLDNDGDGECDFQEFMAFVAMVTTACHEFFEHE
Q: For B1, which “denaturant midpoint (higher = more stable)” value is on record?
A: 3.2 M and 4.6 M

Q: What about the unfolding free energy of the same protein?
A: 17.3 kcal/mol
